Reference: US20030190705A1 (SUNOL MOLECULAR, published 2003)

Key:
[1] = molecular target: T1, lipidated recombinant human tissue factor (e.g., Innovin) (human, UniProt P13726 33-295, limits assumed); assay: cell-based or functional assay
[2] = molecular target: T1, lipidated recombinant human tissue …; assay: cell-based or functional assay; remark: listed apart in the source

| inhibition of TF function (PT assay) [1] [%] | PT Time (in seconds) at 12.9 nM anti-TF antibody [2] [s] | PT Time (in seconds) at 25.8 nM anti-TF antibody [2] [s] | PT Time (in seconds) at 51.6 nM anti-TF antibody [2] [s] | Binder |
| --- | --- | --- | --- | --- |
| ~95 | 19.8 | 40 | 101 | chimeric anti-tissue factor antibody cH36 (antibody, human IgG4, V domains shown) VH: EIQLQQSGPELVKPGASVQVSCKTSGYSFTDYNVYWVRQSHGKSLEWIGYIDPYNGITIYDQNFKGKATLTVDKSSTTAFMHLNSLTSDDSAVYFCARDVTTALDFWGQGTTLTVSS VL: DIQMTQSPASQSASLGESVTITCLASQTIDTWLAWYQQKPGKSPQLLIYAATNLADGVPSRFSGSGSGTKFSFKISSLQAEDFVNYYCQQVYSSPFTFGAGTKLELK |
| ~95 | 18.9 | 33.7 | 82.1 | hOAT (humanized IgG One Anti-Tissue Factor antibody) (antibody, V domains shown) VH: QIQLVQSGGEVKKPGASVRVSCKASGYSFTDYNVYWVRQSPGKGLEWIGYIDPYNGITIYDQNLKGKATLTVDKSTSTAYMELSSLRSEDTAVYFCARDVTTALDFWGQGTTVTVSS VL: DIQMTQSPASLSASVGDRVTITCLASQTIDTWLAWYLQKPGKSPQLLIYAATNLADGVPSRFSGSGSGTDFSFTISSLQPEDFATYYCQQVYSSPFTFGQGTKLEIK |
| ~95 | 20.5 | 41.7 | 94.8 | hFAT (humanized IgG Four Anti-Tissue Factor antibody) (antibody, V domains shown) VH: QIQLVQSGGEVKKPGASVRVSCKASGYSFTDYNVYWVRQSPGKGLEWIGYIDPYNGITIYDQNLKGKATLTVDKSTSTAYMELSSLRSEDTAVYFCARDVTTALDFWGQGTTVTVSS VL: DIQMTQSPASLSASVGDRVTITCLASQTIDTWLAWYLQKPGKSPQLLIYAATNLADGVPSRFSGSGSGTDFSFTISSLQPEDFATYYCQQVYSSPFTFGQGTKLEIK |
